Test results from patent US20120208216A1.

What was measured:
[1] = molecular target: antibody against the IL13 receptor α1 protein (anti-IL13Rα1 antibody); test: sandwich ELISA, Bi- and Dig-M-R10Z8E9 as capture and detection; 0.00 ng/ml analyte in cynomolgus serum (blank)
[2] = molecular target: antibody against the IL-6 receptor (anti-IL6R antibody); test: as above
[3] = molecular target: antibody against the amyloid β-A4 peptide (anti-Aβ antibody); test: as above
[4] = molecular target: antibody against the IL-1R receptor (anti-IL1R antibody); test: as above
[5] = molecular target: Rhesus-monkey IgG (Rhesus-monkey serum); test: SPR (BIAcore T100), mAb captured by anti-mouse Fc, serum 1:100; signal at 80 s
dog IgG (dog serum) [6] = test: as above
[7] = molecular target: baboon IgG (baboon serum); test: as above
[8] = molecular target: cynomolgus IgG (cynomolgus serum); test: as above
[9] = molecular target: human immunoglobulin of class G (human serum); test: as above
[10] = molecular target: marmoset IgG (marmoset serum); test: as above
[11] = molecular target: chimpanzee immunoglobulin of class G (chimpanzee serum); test: as above
[12] = molecular target: antibody against the IL13 receptor α1 protein (anti-IL13Rα1 antibody); test: sandwich ELISA, Bi- and Dig-M-R10Z8E9 as capture and detection; analyte 1.56 ng/ml in cynomolgus serum
[13] = molecular target: antibody against the IL-6 receptor (anti-IL6R antibody); test: as above
[14] = molecular target: antibody against the amyloid β-A4 peptide (anti-Aβ antibody); test: as above
[15] = molecular target: antibody against the IL-1R receptor (anti-IL1R antibody); test: as above
dog IgG (dog serum) [16] = test: SPR (BIAcore T100), mAb captured by anti-mouse Fc, serum 1:100; 1:1 Langmuir, serum IgG assumed 15 mg/ml
[17] = molecular target: human immunoglobulin of class G (human serum); test: as above
[18] = molecular target: marmoset IgG (marmoset serum); test: as above
[19] = molecular target: chimpanzee immunoglobulin of class G (chimpanzee serum); test: as above
[20] = molecular target: antibody against the IL13 receptor α1 protein (anti-IL13Rα1 antibody); test: sandwich ELISA, Bi- and Dig-M-R10Z8E9 as capture and detection; analyte 6.25 ng/ml in cynomolgus serum
[21] = molecular target: antibody against the IL-6 receptor (anti-IL6R antibody); test: as above
[22] = molecular target: antibody against the amyloid β-A4 peptide (anti-Aβ antibody); test: as above
[23] = molecular target: antibody against the IL-1R receptor (anti-IL1R antibody); test: as above
[24] = molecular target: antibody against the IL13 receptor α1 protein (anti-IL13Rα1 antibody); test: sandwich ELISA, Bi- and Dig-M-R10Z8E9 as capture and detection; analyte 100.00 ng/ml in cynomolgus serum
[25] = molecular target: antibody against the IL-6 receptor (anti-IL6R antibody); test: as above
[26] = molecular target: antibody against the amyloid β-A4 peptide (anti-Aβ antibody); test: as above
[27] = molecular target: antibody against the IL-1R receptor (anti-IL1R antibody); test: as above
[28] = molecular target: antibody against the IL13 receptor α1 protein (anti-IL13Rα1 antibody); test: sandwich ELISA, Bi- and Dig-M-R10Z8E9 as capture and detection; analyte 12.50 ng/ml in cynomolgus serum
[29] = molecular target: antibody against the IL-6 receptor (anti-IL6R antibody); test: as above
[30] = molecular target: antibody against the amyloid β-A4 peptide (anti-Aβ antibody); test: as above
[31] = molecular target: antibody against the IL-1R receptor (anti-IL1R antibody); test: as above
[32] = molecular target: antibody against the IL13 receptor α1 protein (anti-IL13Rα1 antibody); test: sandwich ELISA, Bi- and Dig-M-R10Z8E9 as capture and detection; analyte 50.00 ng/ml in cynomolgus serum
[33] = molecular target: antibody against the IL-6 receptor (anti-IL6R antibody); test: as above
[34] = molecular target: antibody against the amyloid β-A4 peptide (anti-Aβ antibody); test: as above
[35] = molecular target: antibody against the IL-1R receptor (anti-IL1R antibody); test: as above
[36] = molecular target: antibody against the IL13 receptor α1 protein (anti-IL13Rα1 antibody); test: sandwich ELISA, Bi- and Dig-M-R10Z8E9 as capture and detection; analyte 3.13 ng/ml in cynomolgus serum
[37] = molecular target: antibody against the IL-6 receptor (anti-IL6R antibody); test: as above
[38] = molecular target: antibody against the amyloid β-A4 peptide (anti-Aβ antibody); test: as above
[39] = molecular target: antibody against the IL-1R receptor (anti-IL1R antibody); test: as above
[40] = molecular target: antibody against the IL13 receptor α1 protein (anti-IL13Rα1 antibody); test: sandwich ELISA, Bi- and Dig-M-R10Z8E9 as capture and detection; analyte 25.00 ng/ml in cynomolgus serum
[41] = molecular target: antibody against the IL-6 receptor (anti-IL6R antibody); test: as above
[42] = molecular target: antibody against the amyloid β-A4 peptide (anti-Aβ antibody); test: as above
[43] = molecular target: antibody against the IL-1R receptor (anti-IL1R antibody); test: as above

MAB<h-Fc gamma>M-R10Z8E9 (antibody)
OD [1]: 0.022 OD | OD [2]: 0.024 OD | OD [3]: 0.023 OD | OD [4]: 0.024 OD | Bound RU [5]: -1.9 RU | Bound RU (dog IgG (dog serum) [6]): 35.5 RU | Bound RU [7]: -1.5 RU | Bound RU [8]: -1.4 RU | Bound RU [9]: 151 RU | Bound RU [10]: 18.9 RU | Bound RU [11]: 159 RU | OD [12]: 0.119 OD | OD [13]: 0.105 OD | OD [14]: 0.139 OD | OD [15]: 0.085 OD | Kd (dog IgG (dog serum) [16]): 31.7 nM | Kd [17]: 0.177 nM | Kd [18]: 204 nM | Kd [19]: 0.221 nM | OD [20]: 0.408 OD | OD [21]: 0.348 OD | OD [22]: 0.482 OD | OD [23]: 0.276 OD | OD [24]: 1.97 OD | OD [25]: 1.82 OD | OD [26]: 1.93 OD | OD [27]: 1.88 OD | OD [28]: 0.772 OD | OD [29]: 0.664 OD | OD [30]: 0.881 OD | OD [31]: 0.546 OD | OD [32]: 1.67 OD | OD [33]: 1.56 OD | OD [34]: 1.71 OD | OD [35]: 1.52 OD | OD [36]: 0.226 OD | OD [37]: 0.19 OD | OD [38]: 0.264 OD | OD [39]: 0.153 OD | OD [40]: 1.23 OD | OD [41]: 1.08 OD | OD [42]: 1.31 OD | OD [43]: 0.98 OD
